Laboratory results from patent publication US20120045393A1 (priority 2009, published 2012).
Where two headings read alike, the source gives them in different places. Non-standard residues stand in square brackets, D forms with d. Primed or numbered codes have the meaning given here. DO3A10CM(3) = metal chelator group attached at the N-terminus (X in table rows); DO3A10CM″ = chelating group at the N-terminus (X in the sequence tables); Bpa = N[C@@H](Cc1ccc(C(=O)c2ccccc2)cc1)C(=O)O; d1Nal = N[C@H](Cc1cccc2ccccc12)C(=O)O; d2Nal = N[C@H](Cc1ccc2ccccc2c1)C(=O)O; d3Pal = N[C@H](Cc1cccnc1)C(=O)O; His(1-Me) = 1-methylhistidine; DO3A10CM = not defined here; Bpa4 = non-natural residue; Amfe4 = not defined here; Bzgly = not defined here; Dcfe4 = not defined here; Hpgly = not defined here; dCfe4 = not defined here; Afe4 = not defined here; azaGly = NNC(=O)O; Sar = CNCC(=O)O

How the values were obtained:
[1] = In vitro metabolic stability in mouse liver homogenate at 37° C.; assay type: in vitro ADME; conditions: female, Tac:NCr:Foxn1nu/nu, mouse, tissue homogenate, pH 7.2
Method: Livers from 10 female Tac:NCr:Foxn1^nu/nu mice were excised, rinsed with ice cold PBS (no Ca^++ or Mg^++) and weighed. The tissues were minced with scissors in Petri dishes on ice with Tris buffered saline (Pierce BupH™ Tris buffered saline packs, #28376; 25 mM Tris, 150 mM NaCl, pH 7.2). After mincing, the tissues were dounce homogenized, and the total volume adjusted with ice cold Tris buffer (4 mL for every gram of excised tissue). The homogenate was centrifuged at ˜4000×g for 10 min at 4° C. The supernatants were aliquoted into Eppendorf tubes on ice (200 and 100 μl volumes) and stored at −80° C. Kidney homogenates were similarly prepared. […] The mixture was centrifuged at 4° C. for 20 min at 20,000×g to precipitate the protein; 10 μL (˜7.6 μCi) of the supernatant was injected into the HPLC for the analysis. […] Peaks at these retention times were also observed in the in vivo plasma sample (FIG. 1). […] After 0 and 60 min, the sample was removed from the incubator, immediately cooled on ice and 2 μL of 10 mM EDTA and 0.2 mL of ice-cooled MeOH were added, mixing after each addition. The proteins in the sample were separated by centrifugation at 14,000 rpm for 20 min. The supernatant was harvested and, in the samples spiked with the ^177Lu-analog, the radioactivity was measured using a Capintec dose calibrator to determine recovery. The sample was then analyzed by HPLC. […] After 0 and 60 min, the sample was removed from the incubator, immediately cooled on ice and 2 μL of 10 mM EDTA and 0.24 mL of ice-cooled methanol was added, mixing after each addition. The proteins in the sample were separated by centrifugation at 14,000 rpm for 20 min. The supernatant was collected and analyzed by LC/MS as described earlier herein.

[2] = test system: EFO-27 human ovarian cancer cells (LHRH binding sites); test: Direct binding/uptake of 177Lu-labeled LHRH-II analogs to EFO-27 cells; conditions: 177Lu-labeled analog, single concentration
Method: All reagents and chemicals were obtained from Sigma unless otherwise specified. LHRH analogs and ^177Lu-LHRH-II analogs were prepared by in-house chemists, as described elsewhere in the application. ^177Lu-LHRH-II analogs were not HPLC purified, as they had been prepared using formulation conditions that yielded high RCP without the need for purification. […] The HPLC-purified material was taken in a stabilizing buffer containing 5% lactose, 0.1% L-cysteine hydrochloride and 800 KIU/mL aprotinin and received as a lyophilized product and stored at −70° C. This was reconstituted in distilled water, aliquoted and stored at −70° C. The radioactivity was determined using Microplate Scintillation counter (Wallac Microbeta Trilux).
For the binding assay, EFO-27 cells were seeded onto 96-well clear flat-bottom tissue-culture-treated plates at 15,000/well density in the growth medium and used for assay on day 2 post-seeding. Cells were routinely checked for confluence and contamination and cell count was done occasionally to ensure consistency in cell numbers.
Direct Binding: Direct binding studies were carried out by incubating appropriate ^177Lu-labeled compounds with EFO-27 cells at 4° C. for 1 h followed by washing off the unbound radioactivity. Non-specific binding was determined by incubating the ^177Lu-LHRH-II analogs in the presence of a large excess (30 uM) of cold (unlabeled) LHRH-II analogs. A 96-well plate format was used.

[3] = test system: LHRH binding sites on human ovarian cancer cells (EFO-27);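 also: Cell-associated radioactivity on confluent EFO-27 monolayers in 96-well plates, measured by microplate scintillation counting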
[4] = biological target: LHRH receptor (LHRH binding sites) on EFO-27 human ovarian cancer cells (human); test: competition with [125I-Tyr8]BRU-2477, EFO-27 cells
[5] = biological target: LHRH receptor (LHRH binding sites) on EFO-27 human ovarian cancer cells (human); test: competition with [125I-Tyr8]BRU-2477 for binding to EFO-27 cells
[6] = biological target: LHRH receptor (LHRH binding sites) on EFO-27 human ovarian cancer cells (human); test: as above; remark: listed apart in the source
[7] = biological target: LHRH binding sites on EFO-27 human ovarian cancer cells (human); test: competition with [125I-Tyr8]BRU-2477 on EFO-27 cells
[8] = read-out: 125I-LHRH II Competition EC50, Table 24, unlabeled analogs, EFO-27 cells

Row | EC50 [3, 8] | EC50 [6] | EC50 [7] | Molecule | 177Lu-LHRH II Direct binding % Bound [2] | further results
1 | – | – | – | N=C(N)NCCC[C@H](NC(=O)[C@@H](Cc1ccc2ccccc2c1)NC(=O)CN1CCN(CC(=O)O)CCN(CC(=O)O)CCN(CC(=O)O)CC1)C(=O)N[C@@H](Cc1c[nH]c2ccccc12)C(=O)N[C@@H](CO)C(=O)N[C@@H](Cc1c[nH]cn1)C(=O)N[C@H](CCCNC(=N)N)C(=O)N[C@@H](Cc1c[nH]c2ccccc12)C(=O)N[C@@H](Cc1ccc(C(=O)c2ccccc2)cc1)C(=O)N1CCCC[C@H]1C(=O)NNC(N)=O [Lu-BRU-2996] | – | remaining at 1 h, 0.3 mg/mL [1]: 71.7 ± 2.9%
2 | 1610 nM | – | – | 2823 (XHWSHXWXPX; not fully specified; N-methyl) [compound 2823] | 1.00% | –
3 | 4620 nM | – | – | 2722 (XHWSHXWXPX; not fully specified; N-methyl) [compound 2722] | 0.36% | –
4 | 3200 nM | – | – | 2896 (XHWSHXWXPX; not fully specified; N-methyl) [compound 2896] | 0.70% | –
5 | – | – | – | N=C(N)NCCC[C@@H](NC(=O)[C@H](Cc1c[nH]cn1)NC(=O)[C@H](CO)NC(=O)[C@H](Cc1c[nH]c2ccccc12)NC(=O)[C@H](Cc1c[nH]cn1)NC(=O)CN(CCc1ccc(O)cc1)C(=O)CNC(=O)CN1CCN(CC(=O)O)CCN(CC(=O)O)CCN(CC(=O)O)CC1)C(=O)N[C@@H](Cc1c[nH]c2ccccc12)C(=O)N[C@@H](Cc1ccc(C(=O)c2ccccc2)cc1)C(=O)N1CCC[C@H]1C(=O)NNC(N)=O [compound 2797] | 4.64% | EC50 ([3]; Table 8: N-substituted amino acid at position 1 and Gly as linker, in vitro binding on EFO-27 cells): 450 nM
6 | > 10000 nM | – | – | 2742 (XHWSHXWXPX; N-methyl) [compound 2742] | 0.125% | –
7 | 280 nM | – | – | 2756 (DO3A10CM-[Sar][Amfe4]WSH[dR]W[Bpa4]P[azaGly]-NH2; reading uncertain) [compound 2756] | 5.17% | –
8 | 2260 nM | – | – | 2725 (XHWSHXWXPX; not fully specified; N-methyl) [compound 2725] | 0.41% | –
9 | 2990 nM | – | – | 2741 (DO3A10CM-[Sar][His(1-Me)]WSH[dR]W[Bpa]P[azaGly]-NH2; reading uncertain) [compound 2741] | 1.35% | –
10 | 2910 nM | – | – | 2644 (DO3A10CM-G[d2Nal][Dcfe4][d3Pal]SH[dR]WYP[dA]-NH2; reading uncertain) [compound 2644] | 2.13% | –
11 | 620 nM | – | – | 2766 (DO3A10CM-G[d1Nal]HWSH[dR]W[Bpa]P[azaGly]-NH2; reading uncertain) [compound 2766] | 10.29% | –
12 | – | 440 nM | – | XXHWSHXWXPX (as printed: DO3A10CM-Gly-Abz4-Sar-His-Trp-Ser-His-Darg-Trp-Bpa4-Pro-azaGly-NH2 (Gly-Abz4 is the linker)) [BRU-2696] | – | EC50 [4]: 440 nM; EC50 [5]: 650 nM
13 | – | 980 nM | 980 nM | XHWSHXWXPX (as printed: DO3A10CM-Dafe4-His-Trp-Ser-His-Darg-Trp-Bpa4-Pro-azaGly-NH2) [BRU-2810] | – | –
14 | – | 260 nM | 260 nM | XHWSHXWXPX (as printed: DO3A10CM-Damfe4-His-Trp-Ser-His-Darg-Trp-Bpa4-Pro-azaGly-NH2) [BRU-2757] | – | EC50 [4]: 260 nM
15 | – | 2990 nM | 2990 nM | {DO3A10CM″}-[Sar][His(1-Me)]WSH[dR]W[Bpa]P[azaGly]-NH2 [BRU-2741] | – | –
16 | – | 620 nM | 620 nM | DO3A10CM-G[d1Nal]HWSH[dR]W[Bpa4]P[azaGly]-NH2 (reading uncertain; also: printed as DO3A10CM-Gly-Dnal1-His-Trp-Ser-His-Darg-Trp-Bpa4-Pro-azaGly-NH2) [BRU-2766] | – | EC50 [5]: 650 nM
17 | – | 1420 nM | 1420 nM | XHWSHXWXPX (as printed: DO3A10CM-Meala-His-Trp-Ser-His-Darg-Trp-Bpa4-Pro-azaGly-NH2) [BRU-2736] | – | –
18 | – | 2010 nM | 2010 nM | XHWSHXWXPX (as printed: DO3A10CM-Sar-His-Trp-Ser-His-Darg-Trp-Nal2-Pro-azaGly-NH2) [BRU-2624] | – | –
19 | – | 1220 nM | – | XFWSHXWXPX (as printed: DO3A10CM-Sar-Phe-Trp-Ser-His-Darg-Trp-Bpa4-Pro-azaGly-NH2) [BRU-2738] | – | –
20 | – | 3690 nM | – | DO3A10CM-[d2Nal][Afe4]WSH[dR]W[Bpa]P[azaGly]-NH2 (reading uncertain; also: printed as DO3A10CM-Dnal2-Afe4-Trp-Ser-His-Darg-Trp-Bpa4-Pro-azaGly-NH2) [BRU-2812] | – | –
21 | – | 450 nM | 450 nM | DO3A10CM-G[Hpgly]HWSH[dR]W[Bpa]P[azaGly]-NH2 (reading uncertain; also: printed as DO3A10CM-Gly-Hpgly-His-Trp-Ser-His-Darg-Trp-Bpa4-Pro-azaGly-NH2) [BRU-2797] | – | EC50 [4]: 450 nM
22 | – | 1610 nM | 1610 nM | XHWSHXWXPX (as printed: DO3A10CM-Sar-His-Trp-Ser-His-Darg-Trp-Thy-Pro-azaGly-NH2) [BRU-2823] | – | –
23 | – | 4550 nM | 4550 nM | XHWSHXWXPX (as printed: DO3A10CM-Sar-His-Trp-Ser-His-Darg-Trp-Dip-Pro-azaGly-NH2) [BRU-2721] | – | –
24 | – | 1800 nM | 2270 nM | DO3A10CM-G[Bzgly]HWSH[dR]W[Bpa]P[azaGly]-NH2 (reading uncertain; also: printed as DO3A10CM-Gly-Bzgly-His-Trp-Ser-His-Darg-Trp-Bpa4-Pro-azaGly-NH2) [BRU-2792] | – | –
25 | – | 280 nM | 280 nM | DO3A10CM-[Sar][Amfe4]WSH[dR]W[Bpa4]P[azaGly]-NH2 (reading uncertain; also: printed as DO3A10CM-Sar-Amfe4-Trp-Ser-His-Darg-Trp-Bpa4-Pro-azaGly-NH2) [BRU-2756] | – | –
26 | – | 2000 nM | 2000 nM | XHWSHXWXPX (as printed: DO3A10CM-Dphe-His-Trp-Ser-His-Darg-Trp-Bpa4-Pro-azaGly-NH2) [BRU-2894] | – | –
27 | – | 2260 nM | 2260 nM | XHWSHXWXPX (as printed: DO3A10CM-Sar-His-Trp-Ser-His-Darg-Trp-Cfe4-Pro-azaGly-NH2) [BRU-2725] | – | –
28 | – | 4620 nM | 4620 nM | XHWSHXWXPX (as printed: DO3A10CM-Sar-His-Trp-Ser-His-Darg-Trp-F5fe-Pro-azaGly-NH2) [BRU-2722] | – | –
29 | – | 2910 nM | – | {DO3A10CM(3)}-G[d2Nal][dCfe4][d3Pal]SH[dR]WYP[dA]-NH2 (reading uncertain; also: printed as DO3A10CM-Gly-Dnal2-Dcfe4-Dpal3-Ser-His-Darg-Trp-Tyr-Pro-Dala-NH2) [BRU-2644] | – | –

Row | Molecule | EC50 [3, 8] | EC50 [6] | EC50 [7] | 177Lu-LHRH II Direct binding % Bound [2] | further results
30 | CN(CC(=O)N[C@@H](Cc1c[nH]cn1)C(=O)N[C@@H](Cc1c[nH]c2ccccc12)C(=O)N[C@@H](CO)C(=O)N[C@@H](Cc1c[nH]cn1)C(=O)N[C@H](CCCNC(=N)N)C(=O)N[C@@H](Cc1c[nH]c2ccccc12)C(=O)N[C@@H](Cc1ccc(C(=O)c2ccccc2)cc1)C(=O)N1CCC[C@H]1C(=O)NNC(N)=O)C(=O)CN1CCN(CC(=O)O)CCN(CC(=O)O)CCN(CC(=O)O)CC1 [compound 2443] | 950 nM | – | – | 1.8% | EC50 ([3]; Table 11: modification of amino acid at position 5, EFO-27 cells): 950 nM; EC50 ([3]; Table 13: linker between AA1 and DO3A10CM, EFO-27 cells): 950 nM
